In publication PMC4987395 one finds FRET efficiency data, which are given here for two substances.

The test has as its target Arabidopsis thaliana plasmodesmata-located protein 1 (PDLP1) fused to RFP (Arabidopsis thaliana) (UniProt Q8GXV7). Kind of test: FRET or BRET; FRET-FLIM: GFP on the MP as donor, RFP on PDLP1 as acceptor; co-expressed by agroinfiltration in N. benthamiana leaves, measured at spots in plasmodesmata; donor fluorescence lifetime by time-correlated single-photon counting.
UniProt Q8GXV7, sequence (Q8GXV7 22-303): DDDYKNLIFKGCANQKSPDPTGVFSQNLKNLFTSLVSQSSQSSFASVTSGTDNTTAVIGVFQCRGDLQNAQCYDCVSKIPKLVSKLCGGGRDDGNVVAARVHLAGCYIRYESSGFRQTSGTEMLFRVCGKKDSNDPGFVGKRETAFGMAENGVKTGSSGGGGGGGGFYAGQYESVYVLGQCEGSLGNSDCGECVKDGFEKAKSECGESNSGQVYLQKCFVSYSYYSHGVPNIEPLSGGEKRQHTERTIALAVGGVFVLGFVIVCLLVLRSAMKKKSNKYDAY

As to “cowpea mosaic virus (CPMV) movement protein (48K) fused at its C-terminus to GFP (natural protein)”, the FRET efficiency is 7.5%.
“grapevine fanleaf virus (GFLV) 2B movement protein with GFP fused at its N-terminus (natural protein)” came in with an FRET efficiency of 6.7%.
